Substrate in this data set: O=C=O
The data set is described as follows: protein film electrochemistry, KM for CO2 reduction at -560 mV. The data set is classed as biochemical, Carboxydothermus hydrogenoformans. Particulars: [Ni-4Fe-4S] C-cluster active site C-cluster.

B1: CODH IICh (Carboxydothermus hydrogenoformans Z-2901) (protein)
chain: AKQNLKSTDRAVQQMLDKAKREGIQTVWDRYEAMKPQCGFGETGLCCRHCLQGPCRINPFGDEPKVGICGATAEVIVARGLDRSIAAGAAGHSGHAKHLAHTLKKAVQGKAASYMIKDRTKLHSIAKRLGIPTEGQKDEDIALEVAKAALADFHEKDTPVLWVTTVLPPSRVKVLSAHGLIPAGIDHEIAEIMHRTSMGCDADAQNLLLGGLRCSLADLAGCYMGTDLADILFGTPAPVVTESNLGVLKADAVNVAVHGHNPVLSDIIVSVSKEMENEARAAGATGINVVGICCTGNEVLMRHGIPACTHSVSQEMAMITGALDAMILDYQCIQPSVATIAECTGTTVITTMEMSKITGATHVNFAEEAAVENAKQILRLAIDTFKRRKGKPVEIPNIKTKVVAGFSTEAIINALSKLNANDPLKPLIDNVVNGNIRGVCLFAGCNNVKVPQDQNFTTIARKLLKQNVLVVATGCGAGALMRHGFMDPANVDELCGDGLKAVLTAIGEANGLGGPLPPVLHMGSCVDNSRAVALVAALANRLGVDLDRLPVVASAAEAMHEKAVAIGTWAVTIGLPTHIGVLPPITGSLPVTQILTSSVKDITGGYFIVELDPETAADKLLAAINERRAGLGLPW
With B1, the Km came out at 8.0 ± 1.6 mM.

(Values after publication PMC3955222.)
